Measured values from patent publication US20130035249A1.

How the values were obtained:
[1] = target: full-length human CEA (human) (UniProt P06731); assay: binding to CHO cells expressing full-length CEA (method of the KD not described)
[2] = target: full-length human CEA (human) (UniProt P06731); assay: binding to CHO cells co-expressing full-length CEA and the CEA splice variant (method of the KD not described)

MEDI-565 (bispecific antibody)
Kd [1]: 5 nM | Kd [2]: 5.6 nM
